{"source": "paper PMC7126280", "about": "(Structure (London, England : 1993), 2006)", "proteins": {"B1": {"name": "SARS-CoV ORF-9b protein (natural protein)", "chain": "MDPNQTNVVPPALHLVDPQIQLTITRMEDAMGQGQNSADPKVYPIILRLGSQLSLSMARRNLDSLEARAFQSTPIVVQMTKLATTEELPDEFVVVTAK"}}, "biological_target": "the molecule itself", "test": "AUC + other: dynamic light scattering"}
{"protein": "B1", "values": [{"measurement": "stoichiometry N", "result": 2}]}
